Reference: patent US20190062420A1 (Janssen / Centocor, published 2019)

B1: OX40SF2IgG1_R2BS29_LC-C (bispecific antibody)
heavy: not shown
light: DIQMTQSPSSLSASVGDRVTITCKASQDVGAAVAWYQQKPGKAPKLLIYWASTRHTGVPSRFSGSGSGTDFTLTISSLQPEDFATYYCQQYINYPLTFGGGTKVEIKRTVAAPSVFIFPPSDEQLKSGTASVVCLLNNFYPREAKVQWKVDNALQSGNSQESVTEQDSKDSTYSLSSTLTLSKADYEKHKVYACEVTHQGLSSPVTKSFNRGECGGGGSGGGGSGGGGSGGGGSMLPAPKNLVVSRVTEDSARLSWTAPDAAFDSFPIYYWEYRVGGEAIVLTVPGSERSYDLTGLKPGTEYFVYINGVKGGEESRPLSAIFTT
notes: mAbtyrin: wild-type IgG1 OX40SF2 with linker and R2BS29 FN3 domain at the C-terminus of the light chain; also called mAbtyrin
B2: OX40SF2IgG1_R2BS29_HC-C (bispecific antibody)
heavy: not shown
light: DIQMTQSPSSLSASVGDRVTITCKASQDVGAAVAWYQQKPGKAPKLLIYWASTRHTGVPSRFSGSGSGTDFTLTISSLQPEDFATYYCQQYINYPLTFGGGTKVEIKRTVAAPSVFIFPPSDEQLKSGTASVVCLLNNFYPREAKVQWKVDNALQSGNSQESVTEQDSKDSTYSLSSTLTLSKADYEKHKVYACEVTHQGLSSPVTKSFNRGEC
notes: mAbtyrin: wild-type IgG1 OX40SF2 with linker and R2BS29 FN3 domain at the C-terminus of the heavy chain; also called mAbtyrin

Tests used:
[1] = molecular target: T1, human FcγRIIB (NM_004001) expressed on cells (human, UniProt P31994 43-310); assay: cell-based or functional assay
T1 sequence: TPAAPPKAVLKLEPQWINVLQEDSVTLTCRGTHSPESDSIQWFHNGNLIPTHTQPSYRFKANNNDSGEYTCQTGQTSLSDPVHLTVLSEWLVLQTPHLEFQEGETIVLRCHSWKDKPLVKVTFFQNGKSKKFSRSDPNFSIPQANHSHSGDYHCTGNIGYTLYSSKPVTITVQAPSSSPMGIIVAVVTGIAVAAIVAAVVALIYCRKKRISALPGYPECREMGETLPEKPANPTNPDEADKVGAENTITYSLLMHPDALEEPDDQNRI

[2] = molecular target: T2, human FcγRIIA (NM_021642) expressed on cells (human, UniProt P12318 36-317); assay: cell-based or functional assay
T2 sequence: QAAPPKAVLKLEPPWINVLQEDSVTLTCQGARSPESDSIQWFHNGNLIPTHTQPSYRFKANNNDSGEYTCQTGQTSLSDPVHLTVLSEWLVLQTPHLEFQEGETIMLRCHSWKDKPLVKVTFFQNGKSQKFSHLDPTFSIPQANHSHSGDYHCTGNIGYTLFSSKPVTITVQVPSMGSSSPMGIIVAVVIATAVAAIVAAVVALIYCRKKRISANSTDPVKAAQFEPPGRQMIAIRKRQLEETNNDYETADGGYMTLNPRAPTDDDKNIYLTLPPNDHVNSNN

[3] = molecular target: T3, human FcγRIIIA (NM_000569) expressed on cells (human, UniProt P08637 17-254); assay: cell-based or functional assay
T3 sequence (P08637 17-254 limits assumed): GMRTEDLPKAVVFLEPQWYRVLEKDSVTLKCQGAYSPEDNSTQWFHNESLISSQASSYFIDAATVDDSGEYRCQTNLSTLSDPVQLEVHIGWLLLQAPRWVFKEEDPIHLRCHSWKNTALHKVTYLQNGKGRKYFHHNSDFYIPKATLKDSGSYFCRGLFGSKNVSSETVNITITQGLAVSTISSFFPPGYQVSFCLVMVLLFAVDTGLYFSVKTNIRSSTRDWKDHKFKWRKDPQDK

FcγRIIA protein = molecular target: T4, FcγRIIA protein (human, UniProt P12318 36-217, biotinylated (SureLINK Biotin Kit) in the ELISA of Example 1); assay: cell-based or functional assay
T4 sequence: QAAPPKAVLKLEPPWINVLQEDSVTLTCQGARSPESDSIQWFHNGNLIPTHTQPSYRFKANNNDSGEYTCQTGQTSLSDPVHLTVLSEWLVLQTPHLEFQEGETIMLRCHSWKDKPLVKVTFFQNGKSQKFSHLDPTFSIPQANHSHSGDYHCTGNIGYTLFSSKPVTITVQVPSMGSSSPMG

FcγRIIB protein = molecular target: T5, FcγRIIB protein (human, UniProt P31994 43-217, biotinylated (SureLINK Biotin Kit) in the ELISA of Example 1); assay: cell-based or functional assay
T5 sequence: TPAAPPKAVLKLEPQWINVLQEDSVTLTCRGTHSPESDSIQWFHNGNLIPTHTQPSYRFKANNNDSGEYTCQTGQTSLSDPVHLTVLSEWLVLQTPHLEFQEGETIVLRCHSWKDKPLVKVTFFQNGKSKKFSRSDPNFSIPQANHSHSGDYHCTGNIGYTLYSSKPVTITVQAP

[4] = molecular target: T6, human OX40 expressed on HEK-Blue: OX40 cells (human, UniProt P43489 29-277); assay: flow cytometry; HEK-Blue: OX40 cells
T6 construct: also called CD134
T6 sequence: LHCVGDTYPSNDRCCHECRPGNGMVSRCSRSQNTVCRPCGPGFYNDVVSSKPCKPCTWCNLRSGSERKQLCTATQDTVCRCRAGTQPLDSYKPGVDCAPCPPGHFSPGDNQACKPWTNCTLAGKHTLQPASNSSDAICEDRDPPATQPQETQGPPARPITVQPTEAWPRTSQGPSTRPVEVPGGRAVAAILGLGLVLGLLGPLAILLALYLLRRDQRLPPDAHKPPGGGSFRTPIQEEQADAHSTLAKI
Method in brief: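 HEK-Blue Null 1 cells stably transfected with human OX40 were blocked, then incubated with mAbtyrin for 1.5 h at 4 °C. Binding was detected with a PE anti-human IgG F(ab′)₂ secondary, gating on DRAQ7-excluding live cells and taking geometric mean fluorescence. EC50 came from nonlinear regression versus log antibody concentration.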

[5] = molecular target: T7, human FcγRI (NM_000566) expressed on cells (human, UniProt P12314 16-374); assay: flow cytometry; Expi293F cells transfected with FcγRI
T7 construct: Transiently expressed on Expi293F cells
T7 sequence (P12314 16-374 limits assumed): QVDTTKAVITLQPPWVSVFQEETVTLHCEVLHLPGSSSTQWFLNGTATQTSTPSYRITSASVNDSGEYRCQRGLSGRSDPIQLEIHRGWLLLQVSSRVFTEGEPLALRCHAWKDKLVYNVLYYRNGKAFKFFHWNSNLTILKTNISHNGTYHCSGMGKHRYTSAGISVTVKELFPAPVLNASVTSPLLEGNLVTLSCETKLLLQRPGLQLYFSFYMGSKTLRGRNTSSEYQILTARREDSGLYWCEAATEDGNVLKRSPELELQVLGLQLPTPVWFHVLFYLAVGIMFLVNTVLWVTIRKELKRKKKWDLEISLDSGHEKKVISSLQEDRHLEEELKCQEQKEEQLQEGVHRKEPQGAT
Procedure: (§1) Plasmids expressing cDNAs encoding human FcγRI (NM_000566) (SEQ ID NO: 44), FcγRIIA (NM_021642) (SEQ ID NO: 2), FcγRIIB (NM_004001) (SEQ ID NO: 3), and FcγRIIIA (NM_000569) (SEQ ID NO: 45) (Origene) were transiently transfected into Expi293F cells by ExpiFectamine293 transfection kit (Life Technologies). Flow cytometry assays were performed 48 h after transfection.
(§2) 2×10⁵ cells per well were seeded in 96-well plate and blocked in BSA Stain Buffer (BD Biosciences, San Jose, USA) for 30 min at 4° C. Cells were incubated with test mAbtyrin on ice for 1.5 h at 4° C. After being washed twice with BSA stain buffer, the cells were incubated with R-PE labeled anti-human or anti-mouse IgG secondary antibody (Jackson Immunoresearch Laboratories) for 45 min at 4° C. The cells were washed twice in stain buffer and then resuspended in 150 μL of Stain Buffer containing 1:200 diluted DRAQ7 live/dead stain (Cell Signaling Technology, Danvers, USA). PE and DRAQ7 signals of the stained cells were detected by Miltenyi MACSQuant flow cytometer (Miltenyi Biotec, Auburn, USA) using B2 and B4 channel respectively. Live cells were gated on DRAQ7 exclusion and the geometric mean fluorescence signals were determined for at least 10,000 live events collected. FlowJo software (Tree Star) was used for analysis. Data was plotted as the logarithm of antibody concentration versus mean fluorescence signals. Nonlinear regression analysis was performed by GraphPad Prism 6 (GraphPad Software, Inc.) and EC₅₀ values were calculated.

[6] = molecular target: T2, human FcγRIIA (NM_021642) expressed on …; assay: flow cytometry; Expi293F cells transfected with FcγRIIA
Procedure: as §1, §2

[7] = molecular target: T1, human FcγRIIB (NM_004001) expressed on …; assay: flow cytometry; Expi293F cells transfected with FcγRIIB
Procedure: as §1, §2

[8] = molecular target: T3, human FcγRIIIA (NM_000569) expressed on …; assay: flow cytometry; Expi293F cells transfected with FcγRIIIA
Procedure: as §1, §2

[9] = molecular target: T1, human FcγRIIB (NM_004001) expressed on …; assay: flow cytometry; Raji cells (express predominantly FcγRIIB)
Procedure: as §2
Raji cell is a cell line derived from B cells that express predominantly FcγRIIB. The binding of mAbtyrins on Raji cells were investigated by flow cytometry assay described for testing mAbtyrin binding to FcγR. Binding of the mAbtyrins were detected by flow cytometry using a PE-labeled Goat F(ab′) against Human IgG(γ).

Binder | % activity at 1 µg/ml with Raji cells (HEK-Blue: OX40 NF-κB reporter) [1] [%] | ADCP EC50 [2] [µg/mL] | ADCC (fold activation) at 1 µg/ml [3] [fold] | IFNγ production by activated CD4 T cells, plate-coated FcγRIIA (FcγRIIA protein) [pg/mL] | TNFα production by activated CD4 T cells, plate-coated FcγRIIA (FcγRIIA protein) [pg/mL] | IFNγ production by activated CD4 T cells, plate-coated FcγRIIb (FcγRIIB protein) [pg/mL] | TNFα production by activated CD4 T cells, plate-coated FcγRIIb (FcγRIIB protein) [pg/mL] | EC50 [4] [µg/mL] | EC50 [5] [µg/mL] | EC50 [6] [µg/mL] | EC50 [7] [µg/mL] | EC50 [8] [µg/mL] | EC50 [9] [µg/mL]
B1 | 76 | 0.0151 | 9 | 125 | 33 | 177 | 37 | 0.111 | 0.397 | 0.066 | 1 | 0.585 | 3.3
B2 | 90 | 0.0318 | 9 | 1760 | 335 | 1370 | 250 | 0.193 | 0.586 | 0.063 | 0.968 | 0.448 | 1.27
